Columns and labels:
[1] = Solubility of purified Wnt3A after heparin chromatography; format: physicochemical; conditions: 1×PBS, 1M NaCl, 1% CHAPS, pH7.3
Experimental: To purify Wnt protein as an example for a typical Fz ligand LWnt3A or LWnt5A cell lines producing and secreting Wnt proteins were used. By growing the cells adherent for 4 days from a 1:10 to 1:20 split high amounts of Wnt-3A were obtained. The medium was DMEM plus 10% FBS, omitting the serum lowers the levels of Wnt protein in the medium. The Wnt containing medium was filtered, detergent was added (Triton X-100 or CHAPS) to a final concentration of 1%, and the medium was refiltered just before applying the material to Blue Sepharose.
Purification by Blue Sepharose fractionation yielded pure Wnt protein, wherein Wnt3A conditioned medium was applied on a Blue Sepharose HP column. Wnt elution from Blue Sepharose was done in a single step from 150 mM to 1.5 M KCl. Approximately, half of the Wnt protein eluted immediately with the salt and the majority of contaminants, but the other half was retained and eluted later in a second pool. This second pool contained much less total protein and consequently contained a higher proportion of Wnt.
Pooled eluted Wnt fractions from Blue Sepharose purification were concentrated by […] to 5 or 10 ml volume using Centricon or Amicon Ultra 30 ultrafiltration device (Amicon) depending on size of […] column. […]

hFz1 = molecular target: T1, hFz1 (Homo sapiens, UniProt Q9UP38); assay: Europium-GTP assay of G protein (Go) activation by hFz1 membranes; format: biochemical; conditions: for relative stimulation among the Wnt ligands tested: detergent-solubilized hFz1, GTP incorporation into Go; for activation of the trimeric Go protein (GTP incorporation into Go): detergent-solubilized hFz1-expressing membrane fractions, not control membranes
T1 construct: made in house; host or cells: Escherichia coli (pMAL-p2), membrane fraction
T1 sequence (Q9UP38 70-647): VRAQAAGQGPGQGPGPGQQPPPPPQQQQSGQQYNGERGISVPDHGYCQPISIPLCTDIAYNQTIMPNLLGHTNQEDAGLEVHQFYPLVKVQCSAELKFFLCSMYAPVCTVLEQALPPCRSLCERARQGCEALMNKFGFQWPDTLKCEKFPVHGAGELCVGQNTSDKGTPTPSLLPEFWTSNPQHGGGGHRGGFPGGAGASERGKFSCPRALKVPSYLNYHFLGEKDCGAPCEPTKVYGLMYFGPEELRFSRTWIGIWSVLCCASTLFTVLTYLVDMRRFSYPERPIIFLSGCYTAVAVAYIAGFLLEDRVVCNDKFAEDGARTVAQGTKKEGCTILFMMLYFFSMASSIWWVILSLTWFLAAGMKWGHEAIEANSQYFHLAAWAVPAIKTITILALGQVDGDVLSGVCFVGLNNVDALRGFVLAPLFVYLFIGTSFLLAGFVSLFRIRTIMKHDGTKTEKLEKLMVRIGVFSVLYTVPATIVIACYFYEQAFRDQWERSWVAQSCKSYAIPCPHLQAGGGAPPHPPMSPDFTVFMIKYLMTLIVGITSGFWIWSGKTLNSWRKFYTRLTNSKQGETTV
Experimental: The coding sequence of hFz1 was cloned in-frame into the pMAL-p2 plasmid (New England BioLabs) allowing expression of the protein as an N-terminal fusion with maltose binding protein (MBP). The natural signal sequence of MBP directs the fusion protein through the cytoplasmic membrane. Expression conditions were optimized to allow slow expression to maximize correct hFz1 folding: Expression was performed at 18° C. for 18 h, and in the presence of glucose to minimize the expression of endogenous MBP protein.
Bacteria were harvested by centrifugation, resuspended in PBS (phosphate-buffered saline) and disrupted by French press. The resultant suspension was cleared from the cell debris by low-speed centrifugation, followed by ultracentrifugation to pellet the membranes expressing MBP-hFz1. The membranes were resuspended in PBS supplemented with the protease-inhibitor cocktail (Roche) and frozen in aliquots at −80° C. Control bacteria were transformed with the empty pMAL-p2 vector, induced with IPTG, grown and harvested in parallel with hFz1-transformed bacteria.
HFz1 coding sequence was subcloned into pIRES2-DsRed-Express plasmid (Invitrogen). CHO cells were transiently transfected with lipofectamine following manufacturer's protocol. Transfection efficiency was estimated to be >50%. Two days post-transfection, transfected cells in parallel with control non-transfected cells of a similar cell density were washed, detached with EDTA, pelleted, washed with PBS, and disrupted in a glass-rod homogenizer in a hypotonic buffer (10 mM Hepes pH 7.5). Membrane fraction was prepared and stored as above.
Europium-GTP assay of G protein activation using a time-resolved fluorescence assay was performed. In one well of a 96-well AcroWell plate, 100 μl were mixed containing 4-10 μg/ml membrane protein from the hFz1 expression in bacteria or in CHO, 50 mM Hepes, pH 7.4, 1 mM MgCl2, 50 mM NaCl and 1 mg/ml saponin. Bacterial membranes expressing hFz1 or bacterial control membranes were used at 0.1 mg/ml protein concentration for membrane protein preparation. CHO membranes expressing hFz1 or CHO control membranes were used at 0.01 mg/ml protein concentration. Varying amounts of the following were added: bovine brain Go (Calbiochem), Wnt3a (R&Dsystems), Wnt3a-conditioned or control L-cell medium. Extra GDP was omitted in most experiments. 30 min after incubating this mixture at room temperature on a shaker (100 rpm), Europium-GTP was added, and incubation was continued for 30 more min. Afterwards the content of the wells was filtered and washed using the Multiscreen Vacuum Manifold (Millipore). Amounts of Europium-GTP retained by the membranes were then measured using the Perkin Elmer Victor3 Multilabel Plate Reader.

hFz7 = molecular target: T2, hFz7 (Homo sapiens, UniProt O75084); assay: in vitro Go activation assay with bacterially expressed hFz7; format: biochemical; conditions: detergent-solubilized bacterially expressed hFz7
T2 construct: made in house
Text: (§1) The results obtained with three human Frizzled receptors (hFz1, hFz6, hFz7) and four Wnt ligands (Wnt3a, Wnt5a, Wnt5b, and Wnt7a) allow to compose a table of pair-wise Wnt-Frizzled activations using Go stimulation as the read-out (FIG. 5C).
(§2) Detergent-solubilized hFz6 and Fz7 stimulated GTP incorporation into Go in the presence of different Wnt ligands. Data are presented in FIG. 5C as summary of the capacity of the tested Wnt ligands to stimulate the tested Frizzled receptors to activate Go in vitro. […] Go activation by the Wnt-Frizzled pairs is denoted (in the order of the decreasing activation capacity) as “+++”, “++”, “+”, “+/−”, and “−” using as criteria the lowest Go-activating Wnt concentration as well as the maximal Go activation level achieved by any Wnt concentration.
(§3) Europium-GTP assay of G protein activation using a time-resolved fluorescence assay was performed. In one well of a 96-well AcroWell plate, 100 μl were mixed containing 4-10 μg/ml membrane protein from the hFz1 expression in bacteria or in CHO, 50 mM Hepes, pH 7.4, 1 mM MgCl2, 50 mM NaCl and 1 mg/ml saponin. Bacterial membranes expressing hFz1 or bacterial control membranes were used at 0.1 mg/ml protein concentration for membrane protein preparation. […] Amounts of Europium-GTP retained by the membranes were then measured using the Perkin Elmer Victor3 Multilabel Plate Reader.

hFz6 = molecular target: T3, hFz6 (Homo sapiens, UniProt O60353); assay: in vitro Go activation assay with bacterially expressed hFz6; format: biochemical; conditions: detergent-solubilized bacterially expressed hFz6
T3 construct: made in house
Text: as §1, §2, §3

Molecule | relative stimulation among the Wnt ligands tested (hFz1) | activation of the trimeric Go protein (GTP incorporation into Go) (hFz1) | further results
Wnt3a | most active | – | solubility and activity maintained at a maximum concentration [1]: ≤ 0.1 mg/mL; stimulation of hFz1 activity towards Go (hFz1; E. coli-produced hFZ1 membranes, 0.3 μg/ml purified Wnt3a): stimulated
fMDGCEL [reference compound] | – | – | stimulation of hFz1 activity towards Go (hFz1; E. coli produced hFz1 membranes, Wnt5a mimetic peptide): can be stimulated
Wnt5a: Wnt ligand (secreted Wnt family protein), frizzled receptor agonist (protein, UniProt P41221 62-380, looked up) Protein Wnt-5a: IIGAQPLCSQLAGLSQGQKKLCHLYQDHMQYIGEGAKTGIKECQYQFRHRRWNCSTVDNTSVFGRVMQIGSRETAFTYAVSAAGVVNAMSRACREGELSTCGCSRAARPKDLPRDWLWGGCGDNIDYGYRFAKEFVDARERERIHAKGSYESARILMNLHNNEAGRRTVYNLADVACKCHGVSGSCSLKTCWLQLADFRKVGDALKEKYDSAAAMRLNSRGKLVQVNSRFNSPTTQDLVYIDPSPDYCVRNESTGSLGTQGRLCNKTSEGMDGCELMCCGRGYDQFKTVQTERCHCKFHWCCYVKCKKCTEIVDQFVCK | most active | concentration-dependent activation | Go activation by hFz7 upon addition of ligand (hFz7): mostly stimulated
Wnt7a: Wnt ligand (secreted Wnt family protein), frizzled receptor agonist (protein, UniProt O00755 32-349, looked up) Protein Wnt-7a: LGASIICNKIPGLAPRQRAICQSRPDAIIVIGEGSQMGLDECQFQFRNGRWNCSALGERTVFGKELKVGSREAAFTYAIIAAGVAHAITAACTQGNLSDCGCDKEKQGQYHRDEGWKWGGCSADIRYGIGFAKVFVDAREIKQNARTLMNLHNNEAGRKILEENMKLECKCHGVSGSCTTKTCWTTLPQFRELGYVLKDKYNEAVHVEPVRASRNKRPTFLKIKKPLSYRKPMDTDLVYIEKSPNYCEEDPVTGSVGTQGRACNKTAPQASGCDLMCCGRGYNTHQYARVWQCNCKFHWCCYVKCNTCSERTEMYTCK | more modest stimulation | concentration-dependent activation | Go activation by hFz6 upon addition of ligand (hFz6): activated Go
Wnt5b: Wnt ligand (secreted Wnt family protein), frizzled receptor agonist (protein, UniProt Q9H1J7 18-359, looked up) Protein Wnt-5b: QLLTDANSWWSLALNPVQRPEMFIIGAQPVCSQLPGLSPGQRKLCQLYQEHMAYIGEGAKTGIKECQHQFRQRRWNCSTADNASVFGRVMQIGSRETAFTHAVSAAGVVNAISRACREGELSTCGCSRTARPKDLPRDWLWGGCGDNVEYGYRFAKEFVDAREREKNFAKGSEEQGRVLMNLQNNEAGRRAVYKMADVACKCHGVSGSCSLKTCWLQLAEFRKVGDRLKEKYDSAAAMRVTRKGRLELVNSRFTQPTPEDLVYVDPSPDYCLRNESTGSLGTQGRLCNKTSEGMDGCELMCCGRGYNQFKSVQVERCHCKFHWCCFVRCKKCTEIVDQYICK | more modest stimulation | concentration-dependent activation | –

Reference: US8119354B2, “Cell-free assay product and method of use thereof for measuring activity of frizzled receptors” (Universitaet Konstanz, priority 2007, dated 2012)
